Source: article PMC3985721
Values belong to the substance of their own block, whether it stands above or below them.

Experiments:
Assay in all cases: native MS
[1] = target: human soluble guanylate cyclase β subunit catalytic domain, wild type, βGC(407–626) (UniProt Q02153)
[2] = target: human soluble guanylate cyclase α subunit catalytic domain, truncated αGC(466–662) (human) (UniProt Q02108)
[3] = target: human soluble guanylate cyclase α subunit catalytic domain, αGC(466–690) (human) (UniProt Q02108)

UniProt Q02153, sequence (Q02153 whole entry, looked up, the tested form may be a part): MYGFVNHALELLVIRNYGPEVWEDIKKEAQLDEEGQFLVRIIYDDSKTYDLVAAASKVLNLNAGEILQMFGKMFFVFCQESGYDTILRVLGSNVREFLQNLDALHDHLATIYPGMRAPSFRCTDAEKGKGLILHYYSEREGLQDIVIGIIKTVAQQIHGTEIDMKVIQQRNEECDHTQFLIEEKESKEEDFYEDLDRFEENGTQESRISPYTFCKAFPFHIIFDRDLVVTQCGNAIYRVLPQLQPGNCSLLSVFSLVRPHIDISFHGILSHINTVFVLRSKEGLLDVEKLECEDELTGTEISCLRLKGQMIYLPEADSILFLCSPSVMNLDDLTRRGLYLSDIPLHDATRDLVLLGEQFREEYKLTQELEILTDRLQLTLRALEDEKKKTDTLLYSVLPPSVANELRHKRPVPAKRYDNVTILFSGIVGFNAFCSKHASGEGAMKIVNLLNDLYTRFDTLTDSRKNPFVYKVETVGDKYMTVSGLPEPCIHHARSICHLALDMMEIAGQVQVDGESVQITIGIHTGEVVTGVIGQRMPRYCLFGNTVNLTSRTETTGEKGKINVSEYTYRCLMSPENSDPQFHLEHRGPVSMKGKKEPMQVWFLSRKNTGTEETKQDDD

Substance: human soluble guanylate cyclase α subunit catalytic domain, shorter construct αGC661 (residues 466–661)
- relative abundance of the heterodimer (%) [1]: 82.5%

- stoichiometry N [2]: 2
Substance: human soluble guanylate cyclase α subunit catalytic domain, truncated αGC(466–662) (from UniProt Q02108 466-662) (domain or fragment)

Substance: human soluble guanylate cyclase α subunit catalytic domain, αGC(466–690) (from UniProt Q02108 466-690) (domain or fragment)
- stoichiometry N [3]: 2
